Measured values taken from patent US20230287376, “IMMOBILIZED ENZYME COMPOSITIONS AND METHODS” (New England Biolabs, Inc., published 2023).

Columns and labels:
HS-T4 DNA ligase = target: T1, HS-T4 DNA ligase (Enterobacteria phage T4, UniProt P00970 P00970:1-487); assay: ligation gel assay to SEQ 3 adaptor; agarose-immobilized form retains activity after 60-100 C, soluble form does not; settings: tags: SNAP-tag fusion, soluble or immobilized on BG-agarose
T1 chain: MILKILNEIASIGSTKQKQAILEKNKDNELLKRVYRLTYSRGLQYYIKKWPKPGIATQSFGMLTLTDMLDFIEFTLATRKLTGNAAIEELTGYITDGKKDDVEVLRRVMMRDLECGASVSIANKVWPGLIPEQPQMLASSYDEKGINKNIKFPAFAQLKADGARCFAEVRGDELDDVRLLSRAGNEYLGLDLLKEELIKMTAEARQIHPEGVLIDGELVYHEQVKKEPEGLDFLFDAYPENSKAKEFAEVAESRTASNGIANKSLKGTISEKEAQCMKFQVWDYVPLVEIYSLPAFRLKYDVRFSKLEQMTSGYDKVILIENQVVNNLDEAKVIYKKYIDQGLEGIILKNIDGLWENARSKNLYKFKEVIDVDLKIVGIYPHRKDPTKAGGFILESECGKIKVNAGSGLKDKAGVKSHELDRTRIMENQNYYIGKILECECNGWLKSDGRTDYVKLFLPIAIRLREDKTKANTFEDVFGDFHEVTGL
Description: (§1) A FAM-labeled DNA duplex was formed by annealing synthetic oligomer, Gene32FAM-fw3′A, /56-FAMN/CA TGGTGATTACGATTCTTGCCCAGTATGTCAATACATCAGTAAAAATA (SEQ ID NO:1) and Gene32-rv5′p, /5Phos/AT TTTTACTGATGTATTGACATACTGGGCAAGAATCGTAATCAC CATG (SEQ ID NO:2).
(§2) For heat treatment, an aliquot of 15.83 μL from an enzyme master mixture was incubated at 4, 40, 60, 80, 90, 95 or 100° C. for 10 min, followed by addition of 9.17 μL of the DNA substrate mixture. All the ligation reactions were carried out at 4° C. overnight in a shaker. The samples were analyzed by electrophoresis on a 12% Tris-Glycine PAGE (Novex/Invitrogen) in 1×TAE Buffer for 2.5 hours at 25 mA (current). […] In contrast, HS-T4 DNA Ligase immobilized to BG-Agarose beads retained enzymatic activity after treatment in the same range of elevated temperature tested.

T4 DNA ligase = target: T2, T4 DNA ligase (Enterobacteria phage T4, UniProt P00970 P00970:1-487); assay: ligation gel assay to SEQ 3 adaptor, 4 C; no activity after 60-100 C pretreatment; settings: tags: untagged, NEB M0202
T2 sequence: T1 chain
Description: as §1, §2

B1: Gene32 FAM duplex + TA adaptor (dsDNA)
DNA 1: CATGGTGATTACGATTCTTGCCCAGTATGTCAATACATCAGTAAAAATA
DNA 2: ATTTTTACTGATGTATTGACATACTGGGCAAGAATCGTAATCACCATG
modifications: 5'-phosphate on SEQ 2
Does B1 bind (HS-T4 DNA ligase)?
Result: binds

Does B1 bind (T4 DNA ligase)?
Result: binds
